Test results taken from publication PMC3618350 (G3: Genes|Genomes|Genetics, 2013).
Like-named read-outs stand apart in the source and are kept apart here.

T1: Rev7 (S. cerevisiae, UniProt P38927 1-245)
T1 sequence (looked up): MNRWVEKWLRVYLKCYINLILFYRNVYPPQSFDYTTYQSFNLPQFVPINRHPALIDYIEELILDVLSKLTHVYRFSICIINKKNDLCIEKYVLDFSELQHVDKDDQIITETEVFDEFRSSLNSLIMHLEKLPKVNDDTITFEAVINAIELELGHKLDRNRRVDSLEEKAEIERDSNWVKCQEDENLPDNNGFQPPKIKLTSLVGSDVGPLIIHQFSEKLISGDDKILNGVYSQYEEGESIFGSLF

T2: Rev1 (S. cerevisiae, UniProt P12689 1-985)
T2 sequence (looked up): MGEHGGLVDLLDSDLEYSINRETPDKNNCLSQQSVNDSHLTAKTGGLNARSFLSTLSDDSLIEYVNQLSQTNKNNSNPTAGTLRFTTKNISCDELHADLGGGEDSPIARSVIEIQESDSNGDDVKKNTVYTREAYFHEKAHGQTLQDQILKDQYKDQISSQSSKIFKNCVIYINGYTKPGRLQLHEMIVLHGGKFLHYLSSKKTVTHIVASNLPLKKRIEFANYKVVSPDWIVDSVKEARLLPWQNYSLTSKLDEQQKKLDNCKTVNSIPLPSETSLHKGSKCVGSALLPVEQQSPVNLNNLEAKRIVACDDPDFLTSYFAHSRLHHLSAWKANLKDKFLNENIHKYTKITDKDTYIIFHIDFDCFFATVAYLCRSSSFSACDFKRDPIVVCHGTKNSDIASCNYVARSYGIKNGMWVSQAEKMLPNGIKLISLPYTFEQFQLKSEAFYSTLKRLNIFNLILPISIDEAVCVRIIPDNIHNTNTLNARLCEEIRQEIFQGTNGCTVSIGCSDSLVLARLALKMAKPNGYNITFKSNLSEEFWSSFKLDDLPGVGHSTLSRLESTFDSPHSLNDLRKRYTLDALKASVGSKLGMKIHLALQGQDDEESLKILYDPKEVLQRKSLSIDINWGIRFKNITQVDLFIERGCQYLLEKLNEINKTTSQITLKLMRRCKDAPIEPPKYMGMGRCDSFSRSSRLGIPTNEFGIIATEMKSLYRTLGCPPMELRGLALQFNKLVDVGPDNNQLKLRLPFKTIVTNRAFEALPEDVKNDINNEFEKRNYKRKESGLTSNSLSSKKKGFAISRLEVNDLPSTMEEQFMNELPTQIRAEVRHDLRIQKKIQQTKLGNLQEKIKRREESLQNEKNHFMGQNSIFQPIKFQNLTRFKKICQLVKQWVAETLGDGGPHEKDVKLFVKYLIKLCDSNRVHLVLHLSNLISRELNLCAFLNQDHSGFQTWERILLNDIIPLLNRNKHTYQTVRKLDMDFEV

B1: Rad57 (natural protein, S. cerevisiae, UniProt P25301 1-460, looked up)
chain: MPRALSIKFDNTYMDLYDELPESKLLYDEEFSYLLDAVRQNGVCVVDFLTLTPKELARLIQRSINEVFRFQQLLVHEYNEKYLEICEKNSISPDNGPECFTTADVAMDELLGGGIFTHGITEIFGESSTGKSQLLMQLALSVQLSEPAGGLGGKCVYITTEGDLPTQRLESMLSSRPAYEKLGITQSNIFTVSCNDLINQEHIINVQLPILLERSKGSIKLVIIDSISHHLRVELQNKSFRESQENKNYLDRMAEKLQILAHDYSLSVVVANQVGDKPLANSPVAHRTYVTDYDYQLGWLVGWKNSTILYRQMNSLLGASSNNDEILSDDEDYMLIERVMSTVNDRNYDFFSKKKPPIIENKTVERNSSSPISRQSKKRKFDYRVPNLGLTWSNHVSTRILLQKSFKASTIIQRGEAHLYKGGDSASFWQVKRTMKVVYSTFAKPGQIAYQITKRGIETA
B2: Mei4 (natural protein, S. cerevisiae, UniProt P29467 1-408, looked up)
chain: MSRGKLEDMEQKETSEVDWIICFALIQSRNPTLWKRALSRKKGDVEDVGALKSEKNLKINPRENSKHIYKWVAPFENGFLNNKSLFAHLEPIYNFLCQNKYKSFEDAVGLKELQSFSKDVSTADINNWFLPRYKILLKILSLKTKEIDFRGLSQVFQTLQILLVSHYSHRIDSDSSFKRTLIDVHVFNFIAKFLFNRILLKKNQNDPKWLQNFYDQGDGKHLCDKVDYKRLCSLHFTLIYSIINIQLIKIKTNQTFEPQILKYVSVLKLIEHILIIIESLIHVLIRFVSKHKLICINRKKAYCRVYLERELSLKKTYLKNFYSVISGVPEKELGGLLKILKIVILSLLETFESIEWQHLKPFLEKFPAHEISLQKKRKYIQAALLITAERNLIARFRLSRWFNETENI
B3: Rad54 (natural protein, S. cerevisiae, UniProt P32863 1-898, looked up)
chain: MARRRLPDRPPNGIGAGERPRLVPRPINVQDSVNRLTKPFRVPYKNTHIPPAAGRIATGSDNIVGGRSLRKRSATVCYSGLDINADEAEYNSQDISFSQLTKRRKDALSAQRLAKDPTRLSHIQYTLRRSFTVPIKGYVQRHSLPLTLGMKKKITPEPRPLHDPTDEFAIVLYDPSVDGEMIVHDTSMDNKEEESKKMIKSTQEKDNINKEKNSQEERPTQRIGRHPALMTNGVRNKPLRELLGDSENSAENKKKFASVPVVIDPKLAKILRPHQVEGVRFLYRCVTGLVMKDYLEAEAFNTSSEDPLKSDEKALTESQKTEQNNRGAYGCIMADEMGLGKTLQCIALMWTLLRQGPQGKRLIDKCIIVCPSSLVNNWANELIKWLGPNTLTPLAVDGKKSSMGGGNTTVSQAIHAWAQAQGRNIVKPVLIISYETLRRNVDQLKNCNVGLMLADEGHRLKNGDSLTFTALDSISCPRRVILSGTPIQNDLSEYFALLSFSNPGLLGSRAEFRKNFENPILRGRDADATDKEITKGEAQLQKLSTIVSKFIIRRTNDILAKYLPCKYEHVIFVNLKPLQNELYNKLIKSREVKKVVKGVGGSQPLRAIGILKKLCNHPNLLNFEDEFDDEDDLELPDDYNMPGSKARDVQTKYSAKFSILERFLHKIKTESDDKIVLISNYTQTLDLIEKMCRYKHYSAVRLDGTMSINKRQKLVDRFNDPEGQEFIFLLSSKAGGCGINLIGANRLILMDPDWNPAADQQALARVWRDGQKKDCFIYRFISTGTIEEKIFQRQSMKMSLSSCVVDAKEDVERLFSSDNLRQLFQKNENTICETHETYHCKRCNAQGKQLKRAPAMLYGDATTWNHLNHDALEKTNDHLLKNEHHYNDISFAFQYISH
B4: Rec114 (natural protein, S. cerevisiae, UniProt P32841 1-428, looked up)
chain: MYEYCSVVIKKYSKYTIPSFAPNGFQSMLEPPQIDKWQHLSANCTLQFRVLLMDSRQILINVVLNNSTLLENIRLPLGDNQDLIQFSCKSPIISCKYISEEFGPRMLRRFQMNLPNDVEFNRTVVSLKNLNFVLRTARTSIAQSTITSQVQGNNNGTKVCFTEGPKVSSYTNPNTQFQTQNMIMDFSQRYQEESERESNNRSNITLPHDSIQIAQQIWPNTDLNVVQSSQDLNTPMATQTVLGRPESLIVQPLEVSQSPPNTTNCLPNAENKKKKVDTTSDFTSRKEIALCKTGLLETIHIPKERESQMQSVTGLDATPTIIWSPGKDNTAKKNTSNKKNIDDKLTNPQKSGNTHTPDRNKEVLPNGTLNETRKEASPSEGLTIRVKNVNRNASRKISKRLIKEKLKDEEFMKWVNKVETVLNKMFEK
B5: Spo11 (natural protein, S. cerevisiae, UniProt P23179 1-398, looked up)
chain: MALEGLRKKYKTRQELVKALTPKRRSIHLNSNGHSNGTPCSNADVLAHIKHFLSLAANSLEQHQQPISIVFQNKKKKGDTSSPDIHTTLDFPLNGPHLCTHQFKLKRCAILLNLLKVVMEKLPLGKNTTVRDIFYSNVELFQRQANVVQWLDVIRFNFKLSPRKSLNIIPAQKGLVYSPFPIDIYDNILTCENEPKMQKQTIFPGKPCLIPFFQDDAVIKLGTTSMCNIVIVEKEAVFTKLVNNYHKLSTNTMLITGKGFPDFLTRLFLKKLEQYCSKLISDCSIFTDADPYGISIALNYTHSNERNAYICTMANYKGIRITQVLAQNNEVHNKSIQLLSLNQRDYSLAKNLIASLTANSWDIATSPLKNVIIECQREIFFQKKAEMNEIDARIFEYK

Experiments:
Assay in all cases: two-hybrid
[1] = biological target: T1, Rev7
[2] = biological target: T2, Rev1
[3] = biological target: T1, Rev7; remark: listed apart in the source

| fold change in reporter activity over the highest negative control [1] | fold change in reporter activity over the highest negative control [2] | further results | Binder |
| --- | --- | --- | --- |
| 2 fold | – | – | B1 |
| – | 3.01 fold | – | B2 |
| 1.49 fold | – | – | B3 |
| – | – | fold change in reporter activity over the highest negative control [3]: 6.27 fold | B4 |
| – | 4.15 fold | – | B5 |
